Entries after “also recorded” stand apart in the source; their conditions may differ. Ends that are not written are not given here.
Legend:
intact heart, ex vivo = test: Ex vivo cardiac protection, ischemia and reperfusion in Langendorff-perfused hearts (TTC staining, CPK release); design: species or system Wistar rats
αPKC = target: T1, αPKC (Mus musculus, UniProt P20444); test: In vivo PKC translocation in hearts after intraperitoneal injection (immunoblot); design: species or system mice; conditions: particulate fraction of mouse hearts, 15 minutes following IP injection of 20 nmol peptide; relative to control TAT peptide
T1 construct: from tissue; host or cells: mouse heart
Protocol: (§1) In a further in vivo study, peptide activity and selectivity were examined using representative peptides injected into mice via intraperitoneal (IP) injection, and the amount of εPKC, δPKC, αPKC, and ζPKC translocation in hearts was determined. These four PKC isozymes represent each of the three major sub-families of PKC. In particular, εPKC and δPKC are members of the novel PKC family (calcium insensitive, diacylglycerol sensitive), αPKC is a classical PKC (calcium and diacylglycerol sensitive), and ζPKC is an atypical PKC (calcium and diacylglycerol insensitive).
(§2) Levels of εPKC, δPKC, αPKC, and ζPKC in the particulate fraction of mouse hearts were assayed by immunoblot 15 minutes following IP injection of 20 nmol each peptides (FIGS. 5A-5D). The accompanying graphs show quantitation based on two experiments, calculated as fold increase (+/−standard error) in the particulate fraction/total fraction, normalized to the actin loading control, and relative to the control TAT peptide. […] Since peptides 11 and 13 caused MARCKS phosphorylation in myocytes from the εPKC knockout mice (FIG. 3), it is concluded that they activated several PKC isozymes.
(§3) Isozyme Selectivity In Vivo—To determine that activator peptides causing MARCKS phosphorylation and decreasing ischemia-reperfusion damage in heart also induce εPKC translocation in vivo, we injected the respective peptides at 20 nmol in 200 μl saline into the peritoneum of 15-20 g mice, as previously reported (48). Fifteen minutes later, the mice were sacrificed and heart and brain were collected. Soluble and particulate fractions from mouse tissue were prepared as previously described (48). ε, ζ and δPKC translocation were determined by Western blot analysis using selective anti-PKC antibodies from Santa Cruz Biotechnology, Santa Cruz, Calif. and used at 1:500 dilution. Sarcomeric actin (1:1000, Sigma) was used as a loading control for all fractions.

δPKC = target: T2, δPKC (Mus musculus, UniProt P28867); test: as above; design: species or system mice; conditions: particulate fraction of mouse hearts, 15 minutes following IP injection of 20 nmol peptide; relative to control TAT peptide
T2 construct: from tissue; host or cells: mouse heart
T2 sequence (P28867 whole entry): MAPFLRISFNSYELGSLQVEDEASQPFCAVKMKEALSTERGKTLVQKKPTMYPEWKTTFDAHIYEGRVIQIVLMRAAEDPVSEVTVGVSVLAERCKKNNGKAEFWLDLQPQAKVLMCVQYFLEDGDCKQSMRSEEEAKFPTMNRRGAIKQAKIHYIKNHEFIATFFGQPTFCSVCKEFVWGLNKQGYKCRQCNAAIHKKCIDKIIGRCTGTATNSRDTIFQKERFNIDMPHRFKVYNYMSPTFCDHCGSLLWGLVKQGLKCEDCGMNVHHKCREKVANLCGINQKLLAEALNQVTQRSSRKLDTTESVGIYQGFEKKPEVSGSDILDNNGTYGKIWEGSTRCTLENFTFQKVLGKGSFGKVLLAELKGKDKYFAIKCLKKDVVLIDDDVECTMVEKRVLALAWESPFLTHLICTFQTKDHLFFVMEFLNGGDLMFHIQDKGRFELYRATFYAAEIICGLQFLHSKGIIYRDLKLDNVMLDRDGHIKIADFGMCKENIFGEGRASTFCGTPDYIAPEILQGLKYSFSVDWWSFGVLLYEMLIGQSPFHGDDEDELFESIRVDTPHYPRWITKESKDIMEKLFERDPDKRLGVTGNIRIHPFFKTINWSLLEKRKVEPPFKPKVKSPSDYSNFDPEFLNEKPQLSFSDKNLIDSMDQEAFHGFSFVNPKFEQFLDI
Protocol: as §1, §2, §3

εPKC = target: T3, εPKC (Mus musculus, UniProt P16054); test: as above; design: species or system mice; conditions: particulate fraction of mouse hearts, 15 minutes following IP injection of 20 nmol peptide; relative to control TAT peptide
T3 construct: from tissue; host or cells: mouse heart
T3 sequence (P16054 1-737): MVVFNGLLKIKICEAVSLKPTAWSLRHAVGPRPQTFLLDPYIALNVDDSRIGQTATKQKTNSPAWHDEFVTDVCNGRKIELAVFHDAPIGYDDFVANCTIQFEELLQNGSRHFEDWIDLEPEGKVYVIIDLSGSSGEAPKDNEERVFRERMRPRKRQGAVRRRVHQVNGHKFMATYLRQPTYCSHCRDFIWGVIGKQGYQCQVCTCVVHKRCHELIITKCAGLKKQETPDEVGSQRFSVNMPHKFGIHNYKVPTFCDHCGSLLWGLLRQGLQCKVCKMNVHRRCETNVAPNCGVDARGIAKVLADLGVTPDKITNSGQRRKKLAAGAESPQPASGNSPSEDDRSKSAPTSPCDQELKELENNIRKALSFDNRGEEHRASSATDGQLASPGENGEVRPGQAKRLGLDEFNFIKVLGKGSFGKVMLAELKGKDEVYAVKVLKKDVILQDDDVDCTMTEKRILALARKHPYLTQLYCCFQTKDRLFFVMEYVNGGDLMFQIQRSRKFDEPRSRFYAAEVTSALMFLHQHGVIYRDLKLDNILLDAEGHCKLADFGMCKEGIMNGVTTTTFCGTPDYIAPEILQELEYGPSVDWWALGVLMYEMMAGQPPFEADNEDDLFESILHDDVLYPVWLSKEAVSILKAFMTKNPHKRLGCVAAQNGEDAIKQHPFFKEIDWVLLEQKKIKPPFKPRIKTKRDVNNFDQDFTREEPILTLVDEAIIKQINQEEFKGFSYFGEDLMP
Protocol: as §1, §2, §3

PKC = test: MARCKS phosphorylation in primary skeletal muscle cells from εPKC knockout mice (Western blot); conditions: primary mouse muscle cells from εPKC knock-out mice; 1 μM peptide for 15 minutes

CHFEDWID (not fully specified; also: TAT47-57 carrier linked via Cys disulfide) [Peptide 11]
Cardioprotective ex vivo (intact heart, ex vivo): not cardioprotective and no
translocation of αPKC in hearts in vivo (αPKC): substantial translocation
translocation of δPKC in hearts in vivo (δPKC): substantial translocation
translocation of εPKC in hearts in vivo (εPKC): substantial translocation
MARCKS phosphorylation in εKO Cells (PKC): increased MARCKS phosphorylation; also recorded: activator

From US7851587B2, “Peptides derived from the C2 domain of epsilon PKC” (The Board of Trustees of the Leland Stanford Junior …, priority 2006, dated 2010)
